For the test, the target named is pre-formed trans-SNARE complexes between V- and T-liposomes (syntaxin-1A S186C-TMR, cysteine-free SNAP-25a, synaptobrevin-2 L26C-Alexa-488) (rat), P32851.
pre-formed trans-SNARE complexes between V- and T-liposomes (syntaxin-1A S186C-TMR, cysteine-free SNAP-25a, synaptobrevin-2 L26C-Alexa-488) (rat), P32851, sequence (P32851 whole entry C145A/S186C/C271A/C272A, chain 1 of 3): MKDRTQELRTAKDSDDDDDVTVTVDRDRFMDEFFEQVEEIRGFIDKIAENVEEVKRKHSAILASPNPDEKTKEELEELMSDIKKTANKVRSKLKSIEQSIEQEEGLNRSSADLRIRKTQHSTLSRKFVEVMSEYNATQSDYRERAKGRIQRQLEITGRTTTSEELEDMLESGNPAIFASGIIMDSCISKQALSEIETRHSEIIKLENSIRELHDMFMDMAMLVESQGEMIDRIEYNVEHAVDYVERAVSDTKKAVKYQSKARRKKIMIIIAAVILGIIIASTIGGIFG
pre-formed trans-SNARE complexes between V- and T-liposomes (syntaxin-1A S186C-TMR, cysteine-free SNAP-25a, synaptobrevin-2 L26C-Alexa-488) (rat), P32851, sequence (P60881 other isoform, or with tags, fused parts or gaps, stated change not applied, chain 2 of 3, further chain): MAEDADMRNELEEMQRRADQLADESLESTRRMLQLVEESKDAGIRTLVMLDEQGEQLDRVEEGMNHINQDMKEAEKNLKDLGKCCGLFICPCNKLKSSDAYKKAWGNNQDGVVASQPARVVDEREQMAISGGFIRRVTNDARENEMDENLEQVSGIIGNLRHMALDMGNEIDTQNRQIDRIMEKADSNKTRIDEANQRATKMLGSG
pre-formed trans-SNARE complexes between V- and T-liposomes (syntaxin-1A S186C-TMR, cysteine-free SNAP-25a, synaptobrevin-2 L26C-Alexa-488) (rat), P32851, sequence (P63045 other isoform, or with tags, fused parts or gaps, stated change not applied, chain 3 of 3, further chain): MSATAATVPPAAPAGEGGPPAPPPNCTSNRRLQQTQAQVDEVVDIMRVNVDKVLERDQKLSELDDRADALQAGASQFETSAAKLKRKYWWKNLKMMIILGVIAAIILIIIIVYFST

B1: full-length Bos Taurus αSNAP, P81125 1-295 (natural protein)
chain: MDNSGKEAEAMALLAEAERKVKNSQSFFSGLFGGSSKIEEACEIYARAANMFKMAKNWSAAGSAFCQAAHVHLQLQSKHDAATCFVDAGNAFKKADPQEAINCLMRAIEIYTDMGRFTIAAKHHISIAEIYETELVDIEKAIAHYEQSADYYKGEESNSSANKCLLKVAGYAAQLEQYQKAIDIYEQVGTNAMDSPLLKYSAKDYFFKAALCHFCIDMLNAKLAVQKYEELFPAFSDSRECKRIKKLLEAHEEQNVDSYTEAVKEYDSISRLDQWLTTMLLRIKKTIQGDEEDLR
modifications: here or on the partner: tetramethylrhodamine on the cysteine at residue 186 | Alexa-488 on the cysteine at residue 26
As for B1, the inhibition of lipid mixing (DiD de-quenching at 37 °C) mediated by trans-SNARE complexes pre-formed between V- and T-liposomes; titration with WT αSNAP came out at 170 nM.

The record behind these values is PMC6757032.
